Sequences and labels used below:
B1: Subtilisin-chymotrypsin inhibitor-2A, P01053 (parent)
chain: MSSVEKKPEGVNTGAGDRHNLKTEWPELVGKSVEEAKKVILQDKPEAQIIVLPVGTIVTMEYRIDRVRLFVDKLDNIAQVPRVG

In this data set the parent is B1. The conditions noted are these: Hordeum vulgare; pH 6.25; 25 °C; GdnHCl; Fluorescence; MES 50 mM; reversible: yes; structure 2CI2; whole UniProt chain shown.

For the variant MSSVEKKPEGVNTGAGDRHNLKTEWPELVGKSVEEAKKVILQDKPEAQIIVVPVGTIATMEYRIDRVRLFVDKLDNIAQVPRVG [L52V V58A], the “ddG of mutation (higher = less stable)” value turned out to be 1.93 kcal/mol, the denaturant m value was found to be 1.86 kcal/mol/M, the “denaturant midpoint (higher = more stable)” value (“denaturant midpoint” for short) was 3.05 M and the unfolding free energy came to 5.67 kcal/mol.

With MSSVEKKPEGVNTGAGDRHNLKTEWPELVGKAVAAAKKVILQDKPEAQIIVLPVGTIVTMEYRIDRVRLFVDKLDNIAQVPRVG [S32A E34A E35A], the “ddG of mutation (higher = less stable)” value came out at 0.75 kcal/mol, the denaturant m value came out at 2.18 kcal/mol/M, the “denaturant midpoint” value turned out to be 3.14 M and the unfolding free energy was determined as 6.85 kcal/mol.

As for MSSVEKKPEGVNTGAGDRHNLKTEWPELVGKSVEEAKKVILQDKPEAQIIVLPVGVIVTMEYRIDRVRLFVDKLDNIAQVPRVG [T56V], the “ddG of mutation (higher = less stable)” value amounted to 1.57 kcal/mol, the denaturant m value was determined as 1.67 kcal/mol/M, the “denaturant midpoint” value came to 3.61 M and the unfolding free energy is 6.03 kcal/mol.

Turning to MSSVEKKPEGVNTGAGDRHNLKTEWPELVGKSVEEAKKVILQDKPEAQIIVLPVGAIVTMEYRIDRVRLFVDKLDNIAQVPRVG [T56A], the “ddG of mutation (higher = less stable)” value is 1.42 kcal/mol, the denaturant m value came to 1.5 kcal/mol/M, the “denaturant midpoint” value was 4.12 M and the unfolding free energy was 6.18 kcal/mol.

MSSVEKKPEGVNTGAGDRHNLKTEWPELVGKSVEEAKKVILQDKPEAQIIVLPVGSIVTMEYRIDRVRLFVDKLDNIAQVPRVG [T56S]: the “ddG of mutation (higher = less stable)” value is 0.98 kcal/mol, the denaturant m value turned out to be 1.66 kcal/mol/M, the “denaturant midpoint” value was determined as 3.99 M and the unfolding free energy was found to be 6.62 kcal/mol.

For MSSVEKKPEGVNTGAGDRHNLKTEWPELVGKSVEEAKKVILQDKPEAQIIVLPVGTIATMEYRIDRVRLLVDKLDNIAQVPRVG [V58A F70L], the “ddG of mutation (higher = less stable)” value is 2.2 kcal/mol, the denaturant m value turned out to be 2.02 kcal/mol/M, the “denaturant midpoint” value is 2.67 M and the unfolding free energy was found to be 5.4 kcal/mol.

For the variant MSSVEKKPEGVNTGAGDRHNLKTEWPELVGKSVEEAKKVILQDKPEAMIIVLPVGTIVTLEYRIDRVRLFVDKLDNIAQVPRVG [Q48M M60L], the “ddG of mutation (higher = less stable)” value was 0.18 kcal/mol, the denaturant m value came out at 1.78 kcal/mol/M, the “denaturant midpoint” value was 4.16 M and the unfolding free energy stood at 7.42 kcal/mol.

With MSSVEKKPEGVNTGAGDRHNLKTEWPELVGKGVAAAKKVILQDKPEAQIIVLPVGTIVTMEYRIDRVRLFVDKLDNIAQVPRVG [S32G E34A E35A], the “ddG of mutation (higher = less stable)” value was determined as 0.81 kcal/mol, the denaturant m value amounted to 2.15 kcal/mol/M, the “denaturant midpoint” value was 3.16 M and the unfolding free energy was 6.79 kcal/mol.

Consider MSSVEKKPEGVNTGAGDRHNLKTEWPELVGKSVEEAKKVILQDKPEAQIIVAPVGTIVTMEYRIDRVRLLVDKLDNIAQVPRVG [L52A F70L], for which the “ddG of mutation (higher = less stable)” value came out at 3.25 kcal/mol, the denaturant m value stood at 1.94 kcal/mol/M, the “denaturant midpoint” value came out at 2.24 M and the unfolding free energy is 4.35 kcal/mol.

Turning to MSSVEKKPEGVNTGAGDRHNLKTEWPELVGKSVEEAKKVILQDKPEAQIIVAPVGTIVTMEYRIDRVRLAVDKLDNIAQVPRVG [L52A F70A], the “ddG of mutation (higher = less stable)” value came out at 5.16 kcal/mol, the denaturant m value was determined as 1.59 kcal/mol/M, the “denaturant midpoint” value amounted to 1.53 M and the unfolding free energy was determined as 2.44 kcal/mol.

On to MSSVEKKPEGVNTGAGDRHNLKTEWPELVGKSVEEAKKVILQDKPEAQIIVAPVGTIATMEYRIDRVRLLVDKLDNIAQVPRVG [L52A V58A F70L], for which the “ddG of mutation (higher = less stable)” value stood at 3.34 kcal/mol, the denaturant m value is 1.93 kcal/mol/M, the “denaturant midpoint” value stood at 2.21 M and the unfolding free energy worked out at 4.26 kcal/mol.

On to MSSVEKKPEGVNTGAGDRHNLKTEWPELVGKSVEEAKKVILQDKPEAQIIVLPVGTAVTMEYRIDRVRLFVDKLDNIAQVPRVG [I57A], for which the “ddG of mutation (higher = less stable)” value was determined as 1.28 kcal/mol, the denaturant m value stood at 1.59 kcal/mol/M, the “denaturant midpoint” value was 3.98 M and the unfolding free energy is 6.32 kcal/mol.

Consider MSSVEKKPEGVNTGAGDRHNLKTEWPELVGKSVEQAKKVILQDKPEAQIIVLPVGTIVTMEYRIDRVRLFVDKLDNIAQVPRVG [E35Q], for which the “ddG of mutation (higher = less stable)” value was 0.68 kcal/mol, the denaturant m value was 1.84 kcal/mol/M, the “denaturant midpoint” value is 3.76 M and the unfolding free energy is 6.92 kcal/mol.

As to MSSVEKKPEGVNTGAGDRHNLKTEWPELVGKSVEDAKKVILQDKPEAQIIVLPVGTIVTMEYRIDRVRLFVDKLDNIAQVPRVG [E35D], the “ddG of mutation (higher = less stable)” value was -0.36 kcal/mol, the denaturant m value is 2.2 kcal/mol/M, the “denaturant midpoint” value was determined as 3.62 M and the unfolding free energy was 7.96 kcal/mol.

Regarding MSSVEKKPEGVNTGAGDRHNLKTEWPELVGKSVENAKKVILQDKPEAQIIVLPVGTIVTMEYRIDRVRLFVDKLDNIAQVPRVG [E35N], the “ddG of mutation (higher = less stable)” value is 0.08 kcal/mol, the denaturant m value stood at 2.18 kcal/mol/M, the “denaturant midpoint” value came out at 3.45 M and the unfolding free energy worked out at 7.52 kcal/mol.

On to MSSVEKKPEGVNTGAGDRHNLKTEWPELVGKSVEEAKKVILQDKPAAQIIVLPVGTIVTMEYRIDRVRLFVDKLDNIAQVPRVG [E46A], for which the “ddG of mutation (higher = less stable)” value was determined as 0.78 kcal/mol, the denaturant m value is 1.78 kcal/mol/M, the “denaturant midpoint” value came to 3.83 M and the unfolding free energy is 6.82 kcal/mol.

As for MSSVEKKPEGVNTGAGDRHNLKTEWPELVGKSVAAAKKVILQDKPEAQIIVLPVGTIVTMEYRIDRVRLFVDKLDNIAQVPRVG [E34A E35A], the “ddG of mutation (higher = less stable)” value is -0.02 kcal/mol, the denaturant m value stood at 2.11 kcal/mol/M, the “denaturant midpoint” value amounted to 3.61 M and the unfolding free energy is 7.62 kcal/mol.

Take MSSVEKKPEGVNTGAGDRHNLKTEWPELVGKSVEEAKKVILQDKAEAQIIVLPVGTIVTMEYRIDRVRLFVDKLDNIAQVPRVG [P45A]: the “ddG of mutation (higher = less stable)” value is 1.22 kcal/mol, the denaturant m value stood at 2.07 kcal/mol/M, the “denaturant midpoint” value was determined as 3.09 M and the unfolding free energy amounted to 6.38 kcal/mol.

With MSSVEKKPEGVNTGAGDRHNLKTEWPELVGKSVEEAKKVILQDKPEAQIIVVPVGTIVTMEYRIDRVRLAVDKLDNIAQVPRVG [L52V F70A], the “ddG of mutation (higher = less stable)” value amounted to 3.26 kcal/mol, the denaturant m value is 1.94 kcal/mol/M, the “denaturant midpoint” value is 2.24 M and the unfolding free energy turned out to be 4.34 kcal/mol.

As for MSSVEKKPEGVNTGAGDRHNLKTEWPELVGKSVEEAKKVILQDKPEAQIIVVPVGTIVTMEYRIDRVRLLVDKLDNIAQVPRVG [L52V F70L], the “ddG of mutation (higher = less stable)” value turned out to be 1.08 kcal/mol, the denaturant m value amounted to 2.37 kcal/mol/M, the “denaturant midpoint” value was found to be 2.75 M and the unfolding free energy was found to be 6.52 kcal/mol.

For the variant MSSVEKKPEGVNTGAGDRHNLKTEWPELVGKSVEEAAKVILQDKPEAQIIVLPVGTIVTMEYRIDRVRLFVDKLDNIAQVPRVG [K37A], the “ddG of mutation (higher = less stable)” value turned out to be 1.13 kcal/mol, the denaturant m value was 1.73 kcal/mol/M, the “denaturant midpoint” value is 3.75 M and the unfolding free energy was found to be 6.47 kcal/mol.

For MSSVEKKPEGVNTGAGDRHNLKTEWPELVGKSVEEAGKVILQDKPEAQIIVLPVGTIVTMEYRIDRVRLFVDKLDNIAQVPRVG [K37G], the “ddG of mutation (higher = less stable)” value amounted to 2.01 kcal/mol, the denaturant m value was determined as 1.99 kcal/mol/M, the “denaturant midpoint” value was 2.8 M and the unfolding free energy came to 5.59 kcal/mol.

Consider MSSVEKKPEGVNTGAGDRHNLATEWPALVGKSVEEAKKVILQDKPEAQIIVLPVGTIVTMEYRIDRVRLFVDKLDNIAQVPRVG [K22A E27A], for which the “ddG of mutation (higher = less stable)” value worked out at 1.17 kcal/mol, the denaturant m value was found to be 1.87 kcal/mol/M, the “denaturant midpoint” value turned out to be 3.43 M and the unfolding free energy turned out to be 6.43 kcal/mol.

In the case of MSSVEKKPEGVNTGAGDRHNLKTEWPELVGKGVEEAKKVILQDKPEAQIIVLPVGTIVTMEYRIDRVRLFVDKLDNIAQVPRVG [S32G], the “ddG of mutation (higher = less stable)” value turned out to be 0.06 kcal/mol, the denaturant m value came to 2.1 kcal/mol/M, the “denaturant midpoint” value was 3.59 M and the unfolding free energy came out at 7.54 kcal/mol.

Take MSSVEKKPEGVNTGAGDRHNLKTEWPELVGKAVEEAKKVILQDKPEAQIIVLPVGTIVTMEYRIDRVRLFVDKLDNIAQVPRVG [S32A]: the “ddG of mutation (higher = less stable)” value is 1.02 kcal/mol, the denaturant m value was found to be 1.86 kcal/mol/M, the “denaturant midpoint” value stood at 3.54 M and the unfolding free energy came to 6.58 kcal/mol.

Turning to MSSVEKKPEGVNTGAGDRHNLKTEWAELVGKSVEEGKKVILQDKPEAQIIVLPVGTIVTMEYRIDRVRLFVDKLDNIAQVPRVG [P26A A36G], the “ddG of mutation (higher = less stable)” value amounted to 1.3 kcal/mol, the denaturant m value came out at 2.39 kcal/mol/M, the “denaturant midpoint” value was 2.64 M and the unfolding free energy stood at 6.3 kcal/mol.

Values taken from FireProtDB (doi:10.1006/jmbi.1995.0616).
